According to patent publication US20250297004A1, “NECTIN-4 BINDING AGENTS” (INNATE PHARMA, priority 2022, published 2025):

What was measured:
[1] = biological target: T1, human Nectin-4 expressed on cells (human, UniProt Q96NY8 32-510); test: flow cytometry on SUM190 cells, MedFI at saturation
T1 construct: On SUM190, SUM185, MDA-MB-468 cells (endogenous) or transfected cells; 31-residue signal peptide left out; also called huN4; wild-type human Nectin-4
T1 sequence: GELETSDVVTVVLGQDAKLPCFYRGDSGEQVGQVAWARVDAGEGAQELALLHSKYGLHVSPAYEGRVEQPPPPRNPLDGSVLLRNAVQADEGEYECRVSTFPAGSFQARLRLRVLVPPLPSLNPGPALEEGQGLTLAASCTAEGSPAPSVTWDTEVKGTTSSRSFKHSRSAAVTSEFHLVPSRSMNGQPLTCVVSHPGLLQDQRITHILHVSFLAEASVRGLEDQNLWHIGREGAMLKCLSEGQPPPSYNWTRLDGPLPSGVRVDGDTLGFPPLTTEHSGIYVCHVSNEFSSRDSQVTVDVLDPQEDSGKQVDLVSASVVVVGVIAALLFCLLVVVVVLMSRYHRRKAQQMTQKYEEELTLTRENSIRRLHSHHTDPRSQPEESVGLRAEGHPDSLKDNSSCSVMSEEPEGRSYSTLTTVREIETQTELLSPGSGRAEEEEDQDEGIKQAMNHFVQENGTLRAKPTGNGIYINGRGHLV
Experimental: The humanized antibodies in Table 3 of Example 3 and in Table 6 of Example 5 were cloned, produced and purified, then tested for binding to Nectin-4 expressing cells by flow cytometry. Binding of humanized variants in human IgG1 format was determined on the SUM190 cell line expressing high levels of Nectin-4.

[2] = biological target: T1, human Nectin-4 expressed on cells; test: cell-based or functional assay
[3] = biological target: T2, rat Nectin-4 protein expressed on CHO cells (rat, UniProt Q8R007 31-508 (mouse entry)); test: flow cytometry on CHO cells expressing rat Nectin-4, Median MFI (PE)
T2 construct: no cleavage site is stated; also called Rat Nectin-4 V5
T2 chain: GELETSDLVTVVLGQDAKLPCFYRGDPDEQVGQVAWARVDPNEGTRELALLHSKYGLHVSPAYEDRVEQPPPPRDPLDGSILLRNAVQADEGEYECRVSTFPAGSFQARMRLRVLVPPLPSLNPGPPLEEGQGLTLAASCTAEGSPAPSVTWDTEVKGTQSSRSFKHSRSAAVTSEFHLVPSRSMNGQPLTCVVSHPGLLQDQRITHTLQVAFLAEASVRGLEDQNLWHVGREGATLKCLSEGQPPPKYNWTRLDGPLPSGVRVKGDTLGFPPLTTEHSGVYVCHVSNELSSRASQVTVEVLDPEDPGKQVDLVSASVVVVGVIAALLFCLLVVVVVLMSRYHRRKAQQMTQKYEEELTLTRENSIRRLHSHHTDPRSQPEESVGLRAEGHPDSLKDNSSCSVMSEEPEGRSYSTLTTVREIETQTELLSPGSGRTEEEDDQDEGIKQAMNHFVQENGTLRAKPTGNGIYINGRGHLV
Experimental: (§1) Anti-Nectin-4 antibodies were tested by flow cytometry for binding to different CHO cell lines made to express respectively the mouse, cynomolgus and rat Nectin-4 protein (including an N-terminal V5 tag not shown in the sequences below).

[4] = biological target: T3, mouse Nectin-4 protein expressed on CHO cells (mouse, UniProt Q8R007 32-508); test: flow cytometry on CHO cells expressing mouse Nectin-4
T3 construct: also called Mouse Nectin-4-V5
T3 sequence: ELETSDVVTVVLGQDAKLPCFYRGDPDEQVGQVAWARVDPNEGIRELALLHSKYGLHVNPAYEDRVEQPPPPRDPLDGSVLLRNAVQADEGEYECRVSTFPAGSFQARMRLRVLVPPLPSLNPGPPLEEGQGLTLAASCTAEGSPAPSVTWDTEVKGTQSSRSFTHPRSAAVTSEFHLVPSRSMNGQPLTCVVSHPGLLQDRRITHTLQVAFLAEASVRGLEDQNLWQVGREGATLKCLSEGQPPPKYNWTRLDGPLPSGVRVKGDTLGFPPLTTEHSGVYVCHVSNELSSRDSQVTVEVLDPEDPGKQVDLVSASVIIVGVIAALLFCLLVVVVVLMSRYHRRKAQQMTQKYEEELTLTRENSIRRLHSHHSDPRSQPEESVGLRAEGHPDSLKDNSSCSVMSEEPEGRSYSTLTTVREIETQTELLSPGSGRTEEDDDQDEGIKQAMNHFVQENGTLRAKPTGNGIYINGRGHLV

human Nectin-4 = biological target: T4, human Nectin-4 (Homo sapiens, UniProt Q96NY8); test: Binding to human Nectin-4 by SPR; details: for ka: SPR association constant; for kd: SPR dissociation constant; for Kd: SPR, human IgG1 isotype antibodies
T4 sequence (Q96NY8 32-510): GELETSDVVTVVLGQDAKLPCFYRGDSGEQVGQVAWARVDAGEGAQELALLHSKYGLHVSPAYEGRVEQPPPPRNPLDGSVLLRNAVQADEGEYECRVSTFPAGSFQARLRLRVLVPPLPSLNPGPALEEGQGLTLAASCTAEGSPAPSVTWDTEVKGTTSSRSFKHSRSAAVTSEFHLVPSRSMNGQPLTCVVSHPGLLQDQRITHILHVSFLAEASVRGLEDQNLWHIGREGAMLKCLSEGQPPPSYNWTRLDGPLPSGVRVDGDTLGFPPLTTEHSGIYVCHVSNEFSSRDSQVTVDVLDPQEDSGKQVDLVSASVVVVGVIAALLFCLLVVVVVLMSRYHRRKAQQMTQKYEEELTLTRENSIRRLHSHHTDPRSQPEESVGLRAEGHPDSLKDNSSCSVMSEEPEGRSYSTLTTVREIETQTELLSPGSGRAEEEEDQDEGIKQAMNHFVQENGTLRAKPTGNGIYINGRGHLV
Method in brief: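 Humanized variants expressed and purified as human IgG1 and tested by SPR against human Nectin-4. Association (ka, 1/Ms) and dissociation (kd, 1/s) rate constants were fitted, and affinity is reported as KD (nM).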

[5] = test system: cynomolgus Nectin-4 protein expressed on CHO cells; test: Species cross-reactivity by flow cytometry on CHO cell lines; type: binding; details: FIG. 6B
Experimental: as §1
(§2) The mature amino acid sequence of the proteins expressed by the cells were as follows: […]

[6] = biological target: T5, mouse Nectin-4 protein expressed on CHO cells (Mus musculus, UniProt Q8R007); test: as above; type: binding
T5 construct: V5 (N); expressed in transfected cells; host or cells: CHO
T5 sequence (Q8R007 32-508): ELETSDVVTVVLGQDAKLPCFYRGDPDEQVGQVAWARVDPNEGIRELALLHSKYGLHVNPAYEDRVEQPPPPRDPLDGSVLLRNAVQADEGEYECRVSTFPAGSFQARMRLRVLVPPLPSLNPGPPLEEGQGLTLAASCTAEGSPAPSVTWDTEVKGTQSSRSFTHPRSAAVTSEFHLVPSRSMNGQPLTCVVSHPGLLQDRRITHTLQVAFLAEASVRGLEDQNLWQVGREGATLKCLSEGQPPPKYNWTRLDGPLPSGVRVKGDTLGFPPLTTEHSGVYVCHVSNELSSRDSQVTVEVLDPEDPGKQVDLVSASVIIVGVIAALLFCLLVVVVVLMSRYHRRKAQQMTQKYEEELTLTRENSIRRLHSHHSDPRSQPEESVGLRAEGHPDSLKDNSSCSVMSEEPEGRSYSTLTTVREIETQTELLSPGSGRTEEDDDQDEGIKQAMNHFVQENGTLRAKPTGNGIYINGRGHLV
Experimental: as §1, §2

[7] = test system: rat Nectin-4 protein expressed on CHO cells; test: as above; type: binding; details: FIG. 6A
Experimental: as §1, §2

Sequence of rat Nectin-4 protein expressed on CHO cells (as listed by the source): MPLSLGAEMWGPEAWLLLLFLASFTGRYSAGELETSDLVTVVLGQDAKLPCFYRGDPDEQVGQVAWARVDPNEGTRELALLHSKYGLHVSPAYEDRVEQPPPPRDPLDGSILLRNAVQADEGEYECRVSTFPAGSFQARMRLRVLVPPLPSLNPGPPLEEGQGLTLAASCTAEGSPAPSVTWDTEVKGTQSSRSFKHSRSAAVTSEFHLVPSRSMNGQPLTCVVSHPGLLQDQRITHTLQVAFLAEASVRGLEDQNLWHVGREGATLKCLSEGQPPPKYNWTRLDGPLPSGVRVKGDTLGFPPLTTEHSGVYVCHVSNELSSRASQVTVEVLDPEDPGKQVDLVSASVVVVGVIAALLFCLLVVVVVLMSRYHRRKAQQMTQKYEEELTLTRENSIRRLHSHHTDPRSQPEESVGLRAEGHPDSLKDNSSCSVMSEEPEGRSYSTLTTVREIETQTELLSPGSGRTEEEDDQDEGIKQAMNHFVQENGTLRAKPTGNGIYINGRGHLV
Sequence of cynomolgus Nectin-4 protein expressed on CHO cells (as listed by the source): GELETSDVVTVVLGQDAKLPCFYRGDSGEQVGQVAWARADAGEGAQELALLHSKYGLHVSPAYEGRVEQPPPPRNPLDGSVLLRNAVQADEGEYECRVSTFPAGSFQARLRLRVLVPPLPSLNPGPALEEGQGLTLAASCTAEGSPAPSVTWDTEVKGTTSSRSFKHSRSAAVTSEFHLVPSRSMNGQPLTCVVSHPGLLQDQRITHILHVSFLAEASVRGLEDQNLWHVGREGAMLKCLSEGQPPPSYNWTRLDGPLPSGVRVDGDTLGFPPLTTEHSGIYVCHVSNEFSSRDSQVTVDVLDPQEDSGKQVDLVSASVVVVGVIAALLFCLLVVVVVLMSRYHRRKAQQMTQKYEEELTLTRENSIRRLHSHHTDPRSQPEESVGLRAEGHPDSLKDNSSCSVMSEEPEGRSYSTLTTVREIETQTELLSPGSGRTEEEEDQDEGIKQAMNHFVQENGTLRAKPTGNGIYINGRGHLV

| Molecule | Max MedFi [1] [MedFI] | internalization efficiency on MDA-MB-468, normalized to chimeric parental antibody (Fab-ZAP, CTG), first column [2] | internalization efficiency on MDA-MB-468, normalized to chimeric parental antibody (Fab-ZAP, CTG), second column [2] | EC50 (read off the curve) [3] [µg/mL] | binding result [4] | ka (human Nectin-4; first set (Table 4)) [M⁻¹ s⁻¹] | ka (human Nectin-4; second set (Table 7)) [M⁻¹ s⁻¹] | kd (human Nectin-4; first set (Table 4)) [s⁻¹] | kd (human Nectin-4; second set (Table 7)) [s⁻¹] | Kd (human Nectin-4; first set (Table 4)) [nM] | Kd (human Nectin-4; second set (Table 7)) [nM] | binding to cynomolgus Nectin 4 protein [5] | binding to mouse Nectin 4 protein [6] | binding to rat Nectin 4 protein [7] |
| --- | --- | --- | --- | --- | --- | --- | --- | --- | --- | --- | --- | --- | --- | --- |
| chimeric parental 5E7 antibody (antibody, V domains shown, Chimeric antibody, murine variable domains with human constant regions; also called ch5E7; CHG1-M-1N4-5E7) VH: QVQLQQPGAELVKPGASVKLSCKASGYIFTSYWMHWVKQRPGQGLEWIGEIDPSDSYTNYNQKFKGKATLTLDKSSSTTYMQLSSLTSEDSAVYYCVRGYGNYGDYWGQGTTLTVSS VL: DVVMTQAAFSNPVTLGTSASISCRSSKSLLHSNGITYLYWYLQKPGQSPQLLIYQMSNLASGVPDRFSSSGSGTDFTLRISRVEAEDVGVYYCAQNLELPWTFGGGTKLEIKR | 25200 | 100 % of chimeric parental | 100 % of chimeric parental | ~0.1 | no binding | – | – | – | – | – | – | – | – | – |
| 5E7 (antibody, V domains shown) VH: QVQLQQPGAELVKPGASVKLSCKASGYIFTSYWMHWVKQRPGQGLEWIGEIDPSDSYTNYNQKFKGKATLTLDKSSSTTYMQLSSLTSEDSAVYYCVRGYGNYGDYWGQGTTLTVSSASTKGP VL: DVVMTQAAFSNPVTLGTSASISCRSSKSLLHSNGITYLYWYLQKPGQSPQLLIYQMSNLASGVPDRFSSSGSGTDFTLRISRVEAEDVGVYYCAQNLELPWTFGGGTKLEIKRTVAAP | – | – | – | – | – | 480000 ± 1e-05 | 480000 ± 1e-05 | 0.0027 ± 0.0003 | 0.0027 ± 0.0003 | 5.9 ± 1.2 | 5.9 | bound | lack binding | bound |
